Experimental data published in paper PMC8281802, “Bacterial Vipp1 and PspA are members of the ancient ESCRT-III membrane-remodeling superfamily” (Cell, 2021).
Numbering of substitutions follows the chain as printed. In names and notes the source's numbering stands. Several values for one entry are separate records, joined by “and”; a condition that tells them apart may be missing. Identical values can stand only once.

Tests used:
[1] = target: the molecule itself; test: cryo-EM structure; 35 μM Vipp1 mixed with pre-formed rat Dynamin 1 filaments (to keep the ice thick) and vitrified; rings of C11 to C17 symmetry reconstructed
[2] = target: the molecule itself; test: SEC + other: negative stain EM; filament assembly assay: Sephacryl 16/60 S500 gel filtration in 25 mM Tris-HCl pH 8.4, 50 mM NaCl; void volume, peak 1 and peak 2 analysed by SDS-PAGE and negative stain EM
[3] = target: the molecule itself; test: cross-linking; cysteine cross-linking: 5 μM protein in 25 mM Tris-HCl pH 8.4, 50 mM NaCl with CuP or 5 μM MTS-4, 1 h at room temperature; rescue with 10 mM DTT; SDS-PAGE

B1: Vipp1/IM30 from Nostoc punctiforme, full-length (amino acids 1–258) (natural protein, UniProt B2J6D9 1-258, looked up)
chain: MGLFDRIKRVVSSNLNDLVNKAEDPEKMLEQAILEMQEDLVQLRQGVAQAIAAQKRSEKQYNDAQNEINKWQRNAQLALQKGDENLARQALERKKTYTDTSAALKASLDTQSTQVETLKRNLIQLESKISEAKTKKEMLKARITTAKAQEQLQGMVRGMNTSSAMSAFERMEEKVLMQESRAQALGELAGADLETQFAQLEGGSDVDDELAALKAQMLPPATPVTQAQLPPQQETTPAKSNEVVDAELDSLRKQLDQL
notes: Vipp1/IM30, Nostoc punctiforme, UniProt B2J6D9, amino acids 1-258, 28.7 kDa; His6 sits on the MBP moiety and leaves with it on TEV cleavage; also called native Vipp1; WT; not shown: MBP, N-terminal, cleaved; His6, N-terminal, cleaved
Which “stoichiometry N” value [1] does the source give for B1 here?
Its value is 84 subunits and 55 subunits to 119 subunits (2×).

B2: Vipp1Δα6_(1–219) (domain or fragment, Nostoc punctiforme, UniProt B2J6D9 1-219, looked up)
chain: MGLFDRIKRVVSSNLNDLVNKAEDPEKMLEQAILEMQEDLVQLRQGVAQAIAAQKRSEKQYNDAQNEINKWQRNAQLALQKGDENLARQALERKKTYTDTSAALKASLDTQSTQVETLKRNLIQLESKISEAKTKKEMLKARITTAKAQEQLQGMVRGMNTSSAMSAFERMEEKVLMQESRAQALGELAGADLETQFAQLEGGSDVDDELAALKAQMLP
notes: Vipp1/IM30, Nostoc punctiforme, UniProt B2J6D9, residues 1-219; lacks the C-terminal extension with helix α6 (aa 220-258); Plasmid pOPTM/Vipp1Δα6_(1-219); not shown: MBP, N-terminal, cleaved; His6, N-terminal, cleaved
Does B2 bind [2]?
Result: binds

B3: Vipp1_(L86C/L193C) (natural protein, Nostoc punctiforme, UniProt B2J6D9 1-258, looked up)
chain: B1 chain with L86C, L193C
notes: Vipp1/IM30, Nostoc punctiforme, UniProt B2J6D9, with the cysteine pair L86C and L193C; Plasmid pOPTM/Vipp1_(L86C/L193C); The legend notes some uncleaved MBP-Vipp1 in the gel; also called L193C and L86C mutants; not shown: MBP, N-terminal, cleaved; His6, N-terminal, cleaved
Does B3 bind [3]?
Result: binds
